Reference: the supplement of paper PMC10126150
± gives the standard deviation of the averaged measurements.

Test system: ATP
Assay: switch fluorescence ratio, 500 uM ATP over buffer (Cy3 cluster intensity, sum of 5 cycles each) (fold (ratio)); higher = stronger signal-on switching upon ATP binding; sequences stand for … in TCGTCGGCAGCGTCAGATGTGTATAAGAGACAGTTTTTTTTTTTTTTTTTTTTTTTTT…TC
Details: aptamer strand: ATP DNA aptamer (quencher-CACCTGGGGGAGTATTGCGGAGGAAGG + anchor), 100 nM annealed; ATP concentration: 500 uM
Summary of the method: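 Cy3-labelled switching-strand clusters on a modified Illumina MiSeq flow-cell were annealed to 100 nM quencher-labelled ATP aptamer, imaged in selection buffer, then imaged after 15 min with 500 uM ATP at 22 °C. Five buffer/ATP cycles ran, with NaOH stripping and re-annealing between them. The fluorescence ratio is summed target-cycle over summed buffer-cycle Cy3 intensity per cluster, averaged per switch-domain sequence. Clusters outside 100-1000 RFU were excluded.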
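Further: ATP exposure 15 min at 22 °C before imaging.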

| Sequence | switch fluorescence ratio |
| --- | --- |
| ACACGGTCTA | 1.01 ± 0.04 |
| TGAAAATAGG | 0.9771 ± 0.0068 |
| TAGGACTCAT | 1.009 ± 0.0082 |
| TTTCGTGTGA | 1.015 ± 0.0062 |
| TTTCTGTTTT | 0.9913 ± 0.0088 |
| GGGTGGTGCT | 0.978 ± 0.021 |
| CTCGTGCCCG | 1.05 ± 0.075 |
| CCTCGGTATG | 1.24 ± 0.025 |
| TAAACGGTGC | 1.07 ± 0.023 |
| GTGTTCATCG | 0.973 ± 0.037 |
| TATGAGGGTT | 1 ± 0.038 |
| AATTTGCTAA | 0.981 ± 0.013 |
| TTCCGGGCGT | 1.12 ± 0.058 |
| GATTGGGGAA | 1.02 ± 0.013 |
| CATTTTGTAT | 0.998 ± 0.013 |
| TGGGGTGCCA | 0.9795 ± 0.0071 |
| ACGTATGGCT | 0.973 ± 0.021 |
| TGTTTTAGTT | 1.01 ± 0.045 |
| TAAGGCGGTC | 0.991 ± 0.098 |
| AAAGGTGCAC | 0.968 ± 0.11 |
| GCTGACTGGT | 0.9939 ± 0.001 |
| AGAGAGGGGT | 1.01 ± 0.047 |
| ACGAAGGTCG | 1.03 ± 0.059 |

| Sequence | switch fluorescence ratio |
| --- | --- |
| GTTGGAGGA | 1.04 ± 0.061 |
| TGTTCTATAT | 1.01 ± 0.05 |
| CAGCGGTGGG | 1.02 ± 0.029 |
| GCCCGGGGAC | 1.18 ± 0.12 |
| CTTAAAACGT | 1.056 ± 0.0033 |
| TTTCGGCGTT | 1.043 ± 0.0069 |
| TTTTGTAGTT | 1 ± 0.043 |
| CAGGCCTAGG | 0.946 ± 0.024 |
| CGGGGAGGCG | 0.982 ± 0.079 |
| CGTCCTGGGC | 1.0441 ± 0.00044 |
| CAATATGTAT | 0.997 ± 0.063 |
| TGAGGGCGAA | 0.984 ± 0.01 |
| CATTATTATG | 1.03 ± 0.036 |
| GGTAAGATGG | 0.995 ± 0.032 |
| AATCGGGGCT | 0.992 ± 0.013 |
| TTAAAGAGCT | 1.014 ± 0.0028 |
| TCGGTCGATT | 1.019 ± 0.0031 |
| CAACAAGGCA | 1.02 ± 0.0071 |
| GTGTTGGTTG | 0.982 ± 0.038 |
| TTCCGGTGTT | 1.05 ± 0.079 |
| GGTGTGTAGA | 1.02 ± 0.038 |
| GTTGCTAGAG | 1.006 ± 0.0035 |
| TGTTGCTTAA | 0.993 ± 0.019 |

| Sequence | switch fluorescence ratio |
| --- | --- |
| AATCTGCTGC | 1.09 ± 0.056 |
| ATTGAGCGGT | 0.983 ± 0.039 |
| GTATAAGGTT | 0.98006 ± 0.00074 |
| GGGGTTGTCA | 0.99 ± 0.058 |
| ACTCAGCGCG | 1.08 ± 0.029 |
| GAGGCAGTTA | 1.11 ± 0.046 |
| AGGGAGGGAA | 1.01 ± 0.022 |
| TTAACGTAGA | 1.04 ± 0.015 |
| AAATGGATCG | 1 ± 0.018 |
| TTGAGCGAGG | 0.961 ± 0.01 |
| TATTAGGGGC | 1.04 ± 0.036 |
| CGATGTGTAC | 2.71 ± 0.17 |
| GTTTGTGCT | 0.988 ± 0.019 |
| TGACAATCCT | 1.05 ± 0.016 |
| ACGATGGAAT | 1.45 ± 0.056 |
| GGGGGTTAAT | 1.013 ± 0.0037 |
| CTGGGATAGG | 1 ± 0.02 |
| GTAGCATGCC | 1.32 ± 0.088 |
| GCCTAGGCGG | 1.01 ± 0.062 |
| AGGGGGTACT | 1 ± 0.011 |
| TGTGGGTGTT | 0.961 ± 0.011 |
| GGGGGCAATC | 2.84 ± 0.54 |
| AGGGGGAGTC | 1.02 ± 0.053 |

| Sequence | switch fluorescence ratio |
| --- | --- |
| TTTGCAATTG | 1.13 ± 0.062 |
| AATTAACTAT | 1.02 ± 0.027 |
| AGCGCCGCGT | 1.09 ± 0.13 |
| TTGGTAATGG | 1.04 ± 0.051 |
| ATTGGAAGAC | 1.06 ± 0.12 |
| AGTGTGGGTA | 0.99 ± 0.021 |
| CACAATGCAG | 1 ± 0.033 |
| CGGGGTGGTT | 1.01 ± 0.038 |
| CTAATGGACA | 1.01 ± 0.025 |
| CAAACCAGGA | 1.09 ± 0.07 |
| TTGGGGGATA | 1.09 ± 0.24 |
| TCCGGGTAGG | 1.036 ± 0.0049 |
| GTGGGAGGCT | 1 ± 0.024 |
| TAATTGATTA | 1.0033 ± 0.00096 |
| ATCTCACTT | 1.02 ± 0.03 |
| CTGAAGGGGG | 0.967 ± 0.058 |
| GGAAAAAGGC | 0.9838 ± 0.0058 |
| GGTATGCGCT | 0.9934 ± 0.0049 |
| CAGCCTTGGT | 1.04 ± 0.11 |
| GGGTACGTCG | 0.996 ± 0.019 |
| TTACGAAACG | 1.08 ± 0.045 |
| CCATGGTTTT | 1.0024 ± 0.00092 |
| ATATTTGGCG | 1.007 ± 0.0029 |

| Sequence | switch fluorescence ratio |
| --- | --- |
| CTAGTTGATG | 0.991 ± 0.022 |
| TGCTGGGTCC | 1.02 ± 0.02 |
| AGTAAAAAGT | 1.02 ± 0.026 |
| TATACATTGG | 0.98862 ± 5.5e-05 |
| GTCTTCATGG | 0.989 ± 0.02 |
| CAGAGGATAG | 1.017 ± 0.0088 |
| GGCTACCAGT | 0.96 ± 0.038 |
| ACATACAGGG | 1.31 ± 0.038 |
| TACGCATAAT | 1.37 ± 0.014 |
| ATCGGTATTT | 1.19 ± 0.39 |
| ATCAGATTTT | 0.9867 ± 0.0034 |
| TGTGACAGGA | 1.02 ± 0.057 |
| CGTTGGGGCA | 1 ± 0.077 |
| TTAACACGGA | 1.01 ± 0.019 |
| TATAATACGG | 1.02 ± 0.02 |
| GCTTGGGATT | 0.977 ± 0.029 |
| TGTTTTATGT | 0.989 ± 0.032 |
| AGTGCGCATG | 1.01 ± 0.032 |
| TTGGGCTAGG | 1 ± 0.0054 |
| TGAGATAGAG | 0.975 ± 0.018 |
| GATACGGACA | 1.42 ± 0.019 |
| AACTTGGTTT | 0.961 ± 0.056 |
| ATGGGGGAAC | 0.975 ± 0.011 |

| Sequence | switch fluorescence ratio |
| --- | --- |
| TAGCATTGTG | 1.02 ± 0.022 |
| GTTGGTGGGT | 0.98 ± 0.032 |
| AGTAGGGGG | 1 ± 0.056 |
| TAATTATTAA | 1.01 ± 0.019 |
| TTTTCGGGAA | 1.011 ± 0.0057 |
| GCGTAAAGGA | 1.02 ± 0.015 |
| AAGTTGAGGG | 0.975 ± 0.035 |
| TAGGAGCAGG | 1.09 ± 0.021 |
| CTGATGTTTT | 0.9747 ± 0.0063 |
| TATACGATCT | 0.999 ± 0.03 |
| TAGGGGAAAT | 0.994 ± 0.024 |
| CGGGCGCACT | 1.06 ± 0.037 |
| TTGCTCCCAC | 1.62 ± 0.81 |
| AAAGGGGGGT | 0.989 ± 0.025 |
| GAGGAATTTA | 1.02 ± 0.028 |
| TTGTTGTTGG | 1.01 ± 0.032 |
| GTTTGGATAT | 0.963 ± 0.01 |
| TTCGATATGT | 0.984 ± 0.022 |
| GGTTTTGGGT | 0.978 ± 0.026 |
| AGGGATGTCC | 1.01 ± 0.044 |
| TTTGCGATGG | 1.09 ± 0.011 |
| TGTTAGTTCT | 1.02 ± 0.0089 |
| GGTTCTTAGG | 1.01 ± 0.032 |

| Sequence | switch fluorescence ratio |
| --- | --- |
| ATTAGGACGT | 0.984 ± 0.032 |
| GATGGAGGTT | 0.996 ± 0.055 |
| TGATTGTACT | 1 ± 0.02 |
| GGCGGAGCTA | 1.03 ± 0.049 |
| CAATATAGGT | 0.967 ± 0.018 |
| CCCTATTTGC | 1.06 ± 0.02 |
| AGTTGAGAGA | 1.01 ± 0.018 |
| AATGCAATTG | 1.03 ± 0.016 |
| CGAAACTTGA | 1.02 ± 0.038 |
| TGGTGTCACG | 0.983 ± 0.017 |
| ACGCCTGGGC | 1.02 ± 0.023 |
| CTCGTTGTGG | 1.25 ± 0.37 |
| TGAACTCGGG | 0.989 ± 0.017 |
| GGGCATTGTT | 1.02 ± 0.043 |
| GTTGGTGGCG | 1.02 ± 0.044 |
| CGGGATCATT | 0.958 ± 0.017 |
| TTAGCGAGTT | 0.979 ± 0.014 |
| ACCAAAGGCT | 1.03 ± 0.04 |
| GGGAGCCGGG | 1.03 ± 0.015 |
